Experiments:
HER1/EGFR = assay: Phosphorylation state ELISA, BT474 cells; type: cell-based, human; conditions: 100 nM, 18 hours
MAPK1 and MAPK3 = assay: Phospho-proteome mass spectrometry; type: cell-based; conditions: 100 nM, 18 hours
Description: Protein #21 was expressed and purified as described in Example 1. […] Cells were then subjected to a phospho-proteome mass-spectrometry analysis as described by Britton, D., et al. (Britton, D., Zen, Y., Quaglia, A., Selzer, S., Mitra, VI., Lössner, C., Jung, S., Bohm, G., Schmid, P., Prefot, P., Hoehle, C., Koncarevic, S., Gee, J., Nicholson, R., Ward, M., Castellano, L., Stebbing, J., Zucht, H. D., Sarker, D., Heaton, N., and Pike, I., 2014. PLOS One 9 (3), e90948). […] At other phosphorylation sites, phosphorylation is increased (772).

BT474 cells = assay: BT474 cell proliferation, BrdU-labeling; type: cell-based, human; conditions: cellular assays of Example 6 and screening
Experimental: Protein #21-His and Protein #23-His, were expressed and purified as described in Example 1. Effects of the recombinant binding proteins on BT474 cell proliferation were determined by measuring DNA synthesis using BrdU-labeling (BrdU, Cell Proliferation ELISA, Roche). Briefly, 10000 BT474 cells were seeded per well in a 96 well plate in 100 ul complete medium and incubated for 24 hours. Recombinant binding proteins or controls were added for an additional 72 hours. BrdU for cell labeling was added for the last 24 hours. Labeled (proliferating) cells were detected according to the manufactures protocol. The data were analyzed using the GraphPad prism software, plotting log [c] on the x-axis against OD450-602 nm on the y-axis. Data were fitted using a non-linear regression fit (log(antagonist) vs. response—Variable slope (four parameters)) deriving IC50 values.
Protein #21 and Protein #21-His were expressed and purified as described in Example 1. Standard BrdU cell proliferation assays were performed, well-known to the person skilled in the art. Briefly, effects on cell proliferation of Protein #21-His, other compounds, or Protein #21-His in combination with other compounds, were determined by measuring DNA synthesis using BrdU-labeling (BrdU, Cell Proliferation ELISA, Roche). Briefly, 10000 cells were seeded per well in a 96 well plate in 100 μl complete medium and incubated for 24 hours. Protein #21-His and/or compounds were added for an additional 72 hours. BrdU for cell labeling was added for the last 24 hours. Labeled (proliferating) cells were detected according to the manufactures protocol. The data were analyzed using the Graph Pad prism software (log [c] vs. OD450-602 nm plot). Data were fitted using a non-linear regression fit (log(antagonist) vs. response—variable slope (four parameters)).

GXA3039 = assay: Gastric cancer patient derived tumor xenograft mouse model GXA3039; type: in vivo; conditions: Protein #21 60 mg/kg, antibodies 10 mg/kg, every three days for 6 times
Experimental: Further, Protein #21 was expressed and purified as described in Example 1. […] All groups were dosed every three days for 6 times. Briefly, tumor fragments were obtained from xenografts in serial passage in nude mice. After removal from donor mice, tumors were cut into fragments (4-5 mm diameter) for subcutaneous implantation. Mice were randomized into groups when tumors reached a volume of approximately 100-120 mm^3. The day of randomization and treatment initiation is designated as day 0 in each experiment. Tumor growth was monitored by two-dimensional measurement with a caliper on the day of randomization and then twice weekly. Relative volumes of individual tumors (individual RTVs) for Day x were calculated by dividing the individual tumor volume on Day x (Tx) by the individual volume of the same tumor on Day 0 (TO) multiplied by 100%. Tumor inhibition for a particular day (T/C in %) was calculated from the ratio of the median RTV values of test versus control groups multiplied by 100%.

B1: Protein #21: SEQ ID NO: 21; HER2 binding domains (SEQ ID NOs: 16, 17) flanked by two serum albumin binding domains (SEQ ID NO: 14), SEQ ID NO: 9 linkers (protein)
chain: GSDLGKKLLEAARAGQDDEVRELLKAGADVNAKDYFSHTPLHLAARNGHLKIVEVLLKAGADVNAKDFAGKTPLHLAANEGHLEIVEVLLKAGADVNAQDIFGKTPADIAADAGHEDIAEVLQKAAGSPTPTPTTPTPTPTTPTPTPTGSDLGIKLLFAAAKGQDDEVRELLKAGADVNAKDFQGVTPLHIAAQSGHLEIVEVLLKAGADVNAKDVTGDTPLHLAAQHGHLEIVEVLLKAGADVNAQDERGWTPADLAADWGHEDIAEVLQKAAGSPTPTPTTPTPTPTTPTPTPTGSDLGKKLLEAARAGQDDEVRELLKAGADVNAKDEYGLTPLYLATAHGHLEIVEVLLKAGADVNAVDAIGFTPLHLAAFIGHLEIAEVLLKAGADVNAQDKFGKTPADIAAGAGNEDIAEVLQKAAGSPTPTPTTPTPTPTTPTPTPTGSDLGKKLLEAARAGQDDEVRELLKAGADVNAKDYFSHTPLHLAARNGHLKIVEVLLKAGADVNAKDFAGKTPLHLAANEGHLEIVEVLLKAGADVNAQDIFGKTPADIAADAGHEDIAEVLQKAA
modifications: Protein comprising four designed ankyrin repeat domains
For B1, the “HER1/EGFR Pan-Phospho-Tyrosine” value (HER1/EGFR) was 0.40 fold change to PBS, the “phosphorylated peptides that map to MAPK1 and MAPK3” value (MAPK1 and MAPK3) was “considerably downregulated” and the cellular potency (BT474 cells) was “high cellular potency”. For the same molecule, the “inhibition of tumor growth, first experiment” value (GXA3039; GXA3039, FIG. 4C) was “strong inhibition of tumor growth” and the “inhibition of tumor growth, second experiment” value (GXA3039; GXA3039, FIG. 4D) was “strong inhibition of tumor growth”.
